± gives the standard error. This sample holds only a part of the variants without activity.
B1: glmS ribozyme (parent)
chain: AUAAAAGCGCCAGAACUACAGAAAUGUAGUUGACGAGGAGGAGGUUUAUCGAAUUUUCGGCGGAUGCCUCCAAA

Experiments:
Details in all cases: with glucosamine-6-phosphate
[1] = variants of: B1; test: self-cleavage kobs at 160 uM GlcN6P; higher = faster cleavage; RNA array
Outline: (§1)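 Using a hybridised Cy3 probe at 37 °C, barcoded ribozyme variants transcribed in situ by E. coli RNA polymerase on sequenced MiSeq chips were monitored across tiles imaged over ~14 h. The flow contained glucosamine-6-phosphate from 40 μM to 10 mM in HEPES/KCl/Mg(OAc)2 buffer. Signals were normalised to baseline and to non-cleaving reference variants before per-tile medians were fit to one- or two-exponential decays to yield kobs. Weighted Michaelis–Menten fits across concentrations gave kcat and KM.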

[2] = variants of: B1; test: self-cleavage kobs at 640 uM GlcN6P; higher = faster cleavage; RNA array
Outline: as §1

[3] = variants of: B1; test: self-cleavage kobs at 2500 uM GlcN6P; higher = faster cleavage; RNA array
Outline: as §1

[4] = variants of: B1; test: self-cleavage kobs at 40 uM GlcN6P; higher = faster cleavage; RNA array
Outline: as §1

[5] = variants of: B1; test: self-cleavage kobs at 10000 uM GlcN6P; higher = faster cleavage; RNA array
Outline: as §1

Variant | self-cleavage kobs at 160 uM GlcN6P [1] [s⁻¹] | self-cleavage kobs at 640 uM GlcN6P [2] [s⁻¹] | self-cleavage kobs at 2500 uM GlcN6P [3] [s⁻¹] | self-cleavage kobs at 40 uM GlcN6P [4] [s⁻¹] | self-cleavage kobs at 10000 uM GlcN6P [5] [s⁻¹]
C8U G35C C70G | < 1e-05 |  |  |  | 
G7A U54C U65G C67U | < 1e-05 | < 1e-05 | < 1e-05 |  | 
C8G U56A G62U | < 1e-05 | < 1e-05 | < 1e-05 |  | 
G66A C71A | 0.00048 ± 9.5e-05 | 0.0014 ± 0.00036 |  | 0.000146 ± 2.1e-05 | 0.00424 ± 0.00059
G7C G13C A48G C70A | < 1e-05 | < 1e-05 | < 1e-05 |  | 
G63U U65G | < 1e-05 | < 1e-05 | < 1e-05 | < 1e-05 | < 1e-05
G9A A52U C70U | < 1e-05 |  |  |  | 
G9C A48G | < 1e-05 | < 1e-05 | < 1e-05 |  | < 1e-05
A64U C68A |  | < 1e-05 |  | < 1e-05 | < 1e-05
G7U A14C A48U | < 1e-05 | < 1e-05 | < 1e-05 |  | 
G9A C16U G41A A48U | < 1e-05 | < 1e-05 | < 1e-05 |  | < 1e-05
A6C A15U C16U | < 1e-05 |  |  |  | 
G9A A12G A14G G35U | < 1e-05 |  | < 1e-05 |  | 
C8G G35U G66A | < 1e-05 | < 1e-05 |  |  | 
C8A C10U | < 1e-05 | < 1e-05 |  |  | 
C8U G29U G41A G44C | < 1e-05 |  |  |  | 
C8U G32A | < 1e-05 |  | < 1e-05 |  | < 1e-05
C8U G40U G43U | < 1e-05 | < 1e-05 | < 1e-05 |  | 
A6G C11U G43C | < 1e-05 | < 1e-05 |  |  | 
A6C C11U C16U U30G A39U G41U U54G U69G | < 1e-05 |  |  |  | 
A6C A12U G41A | < 1e-05 | < 1e-05 | < 1e-05 |  | 
C8U C61G | < 1e-05 | < 1e-05 | < 1e-05 |  | < 1e-05
A6C U57C | < 1e-05 | < 1e-05 | < 1e-05 |  | < 1e-05
